Results as given in patent US20170281749A1.

Assays:
[1] = biological target: CH505TF gp120 GCN4 Trimer; assay: SPR
[2] = biological target: CH505TF gp140 Trimer; assay: SPR

| Substance | Kd [1] [nM] | Kd [2] [nM] |
| --- | --- | --- |
| A32 (C1) | 2.9 | 3 |
| CH01 (V1-V2) | > 100000 | – |
| 2G12 (-CHO) | 169 | 6.5 |
| CH103_UCA (CD4 bs) | 14.6 | 36.1 |
| CH58 (V2) | 104 | 60.5 |
| VRC01 (CD4 bs) | 2.5 | 2.4 |
| F105 (CD4 bs) | 40.7 | 24.9 |
| 19b (V3) | 0.8 | 1.2 |
| CH106 (CD4 bs) | 5.5 | 5.81 |
| PGT128 (-CHO) | 53 | 20.3 |
| 697 D (V2) | 554 | 170 |
| PG9 (V1-V2) | 159 | 69.2 |
